Assay results: patent US20260200999A1, “SYNTHETIC TRANSCRIPTION FACTORS” (ETH ZURICH, priority 2022, published 2026)
Entries after “also recorded” stand apart in the source; their conditions may differ.

Assays:
[1] = tested on: Response Element-driven mCerulean reporter; experiment: Dose dependency of mCerulean reporter expression on transfected MTF construct amount, HEK293; assay type: cell-based, human; details: HEK293, 24-well plates, 100 ng reporter construct, Hill equation, Hill coefficient 1
Procedure: By transfecting different amounts of the codon optimized MTF construct into HEK293 cells the inventors established a dose dependency of mCerulean reporter (Gol) expression on the expression levels of MTF (FIG. 3). HEK293 cells in 24-well plates were transfected with 0.75, 3, 6, 12, 24, 48, 96, 192, and 384 ng of MTF construct, 100 ng of reporter construct, and 50 ng of constitutive mCherry transfection control construct. Two days after transfection, the cells were analyzed using flow cytometry. The dose-response curve was modeled as a Hill equation assuming a Hill coefficient of 1.

[2] = tested on: reporter construct with MTERF1 binding sites (SEQ ID NO: 42) upstream a minimal TATA box driving mCerulean; experiment: mCerulean reporter co-transfection with MTF construct in Hela cells (microscopy, flow cytometry); assay type: cell-based, human; details: Hela cells; 5xRE 6 bp spacer reporter (SEQ ID NO: 44); versus naturally used codons
Text: The inventors engineered an exemplary “Human-derived transcriptional activator protein” (HumTAP) transactivation system by engineering a HumTAP transactivator and a promoter comprising the Response Elements/MTERF1 binding sites that is operably linked to a gene of interest. A prototype HumTAP protein was made by fusing a peptide consisting of amino acids 58 through 399 of the human MTERF1 gene (MTERF158-399 (SEQ ID NO: 1), Uniprot Q99551) to a peptide consisting of amino acids 430 through 551 of the RELA protein (RelA430-551 (SEQ ID NO: 3), Uniprot Q04206). This fusion is henceforth referred to as MTERF158-399::RelA430-551 (or “MTF”; SEQ ID NO: 100). A DNA construct was made with a strong EF1A promoter driving a constitutive expression of MTF (SEQ ID NO: 101) in human cells (“MTF construct”).
To construct a promoter with Response Elements/MTERF1 binding sites driving the gene of interest, the inventors placed MTERF1 binding sites (SEQ ID NO: 42) upstream a minimal TATA box (SEQ ID NO: 103). An mCerulean fluorescent reporter representing the gene of interest (Gol) was placed downstream of the TATA box. Each of these is referred to as a reporter construct. […] Using flow cytometry, relative mCerulean levels were measured and calculated by normalization to the transfection control in Hela cells (FIG. 1C). […]

[3] = tested on: Response Element-driven mCerulean reporter (MTERF1 binding sites, SEQ ID NO: 42); experiment: mCerulean reporter co-transfection with HumTAP constructs in HEK293 cells (flow cytometry); assay type: cell-based, human; details: HEK cells
Procedure, shortened: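 HEK293 cells co-transfected with MTERF1(58-399) DNA-binding domain–transactivation domain fusions, a reporter of 5× MTERF1 binding sites without spacer upstream of a minimal TATA box driving mCerulean, and a constitutive transfection control. mCerulean measured by flow cytometry and normalized to the transfection control; no-fusion cells serve as negative control.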

[4] = tested on: endogenous human genes in HEK293 cells; experiment: RNA-Seq differential gene expression analysis of transfected HEK293 cells versus junk plasmid (edgeR); assay type: cell-based; details: transfected HEK293 cells vs "junk" plasmid, FDR<0.5, fold-change of at least 2
Procedure: The inventors therefore used RNA-Seq to investigate whether MTF (SEQ ID NO: 100) activates the expression of endogenous human genes. The inventors also transfected WT MTERF1 (SEQ ID NO: 108) to compare the gene-regulatory effects of MTERF1 to those of MTF. Differential gene expression analysis was performed against cells that were transfected with a “junk” plasmid using the edgeR software package for R [24]. […] Future investigations will assess the dose-dependency of differentially expressed (DE) genes on MTF amount and may help clarify the origin of DE genes.

Molecule | EC10 of transfected MTF construct ([1]; two days after transfection) | EC50 of transfected MTF construct ([1]; two days after transfection) | theoretical EC90 of transfected MTF construct ([1]; slight drop at higher amounts) | increase of reporter gene expression by codon optimization [2] | effect of codon optimization on reporter fluorescence levels [3] | DE genes, Regulation Up (up-regulated gene, Symbol) [4]
codon optimized MTF construct: DNA construct encoding MTF with codons changed to the most common ones in humans (nucleic acid) DNA: ATGTTCGGCGTGAAGTGCCACAACACCGACAGCGAGCCCCTGAAGAACGAGGACCTGCTGAAGAACCTGCTGACCATGGGCGTGGACATCGACATGGCCCGCAAGCGCCAGCCCGGCGTGTTCCACCGCATGATCACCAACGAGCAGGACCTGAAGATGTTCCTGCTGAGCAAGGGCGCCAGCAAGGAGGTGATCGCCAGCATCATCAGCCGCTACCCCCGCGCCATCACCCGCACCCCCGAGAACCTGAGCAAGCGCTGGGACCTGTGGCGCAAGATCGTGACCAGCGACCTGGAGATCGTGAACATCCTGGAGCGCAGCCCCGAGAGCTTCTTCCGCAGCAACAACAACCTGAACCTGGAGAACAACATCAAGTTCCTGTATAGCGTGGGCCTGACCCGCAAGTGCCTGTGCCGCCTGCTGACCAACGCCCCCCGCACCTTCAGCAACAGCCTGGACCTGAACAAGCAGATGGTGGAGTTCCTGCAGGCCGCCGGCCTGAGCCTGGGCCACAACGACCCCGCCGACTTCGTGCGCAAGATCATCTTCAAGAACCCCTTCATCCTGATCCAGAGCACCAAGCGCGTGAAGGCCAACATCGAGTTCCTGCGCAGCACCTTCAACCTGAACAGCGAGGAGCTGCTGGTGCTGATCTGCGGCCCCGGCGCCGAGATCCTGGACCTGAGCAACGACTACGCCCGCCGCAGCTACGCCAACATCAAGGAGAAGCTGTTCAGCCTGGGCTGCACCGAGGAGGAGGTGCAGAAGTTCGTGCTGAGCTACCCCGACGTGATCTTCCTGGCCGAGAAGAAGTTCAACGACAAGATCGACTGCCTGATGGAGGAGAACATCAGCATCAGCCAGATCATCGAGAACCCCCGCGTGCTGGACAGCAGCATCAGCACCCTGAAGAGCCGCATCAAGGAGCTGGTGAACGCCGGCTGCAACCTGAGCACCCTGAACATCACCCTGCTGAGCTGGAGCAAGAAGCGCTACGAGGCCAAGCTGAAGAAGCTGAGCCGCTTCGCCCAGGCCGGCGAGGGCACCCTGAGCGAGGCCCTGCTGCAGCTGCAGTTCGACGACGAGGACCTGGGCGCCCTGCTGGGCAACAGCACCGACCCCGCCGTGTTCACCGACCTGGCCAGCGTGGACAACAGCGAGTTCCAGCAGCTGCTGAACCAGGGCATCCCCGTGGCCCCCCACACCACCGAGCCCATGCTGATGGAGTACCCCGAGGCCATCACCCGCCTGGTGACCGGAGCACAAAGACCCCCTGATCCTGCGCCAGCACCTCTTGGAGCACCTGGCCTGCCCAACGGCCTGCTGAGCGGCGACGAGGACTTCAGCAGCATCGCCGACATGGACTTCAGCGCCCTGCTGAGCCAGATCAGCAGC | 1.25 ng | 11.24 ng | 101 ng | ca. 3 fold | no significant effect | –
WT MTERF1: human MTERF1, Uniprot Q99551, including the mitochondrial transfer peptide (protein, listed as Homo sapiens) MQSLSLGQTSISKGLNYLTIMAPGNLWHMRNNFLFGSRCWMTRFSAENIFKSVSFRLFGVKCHNTDSEPLKNEDLLKNLLTMGVDIDMARKRQPGVFHRMITNEQDLKMFLLSKGASKEVIASIISRYPRAITRTPENLSKRWDLWRKIVTSDLEIVNILERSPESFFRSNNNLNLENNIKFLYSVGLTRKCLCRLLTNAPRTFSNSLDLNKQMVEFLQAAGLSLGHNDPADFVRKIIFKNPFILIQSTKRVKANIEFLRSTFNLNSEELLVLICGPGAEILDLSNDYARRSYANIKEKLFSLGCTEEEVQKFVLSYPDVIFLAEKKFNDKIDCLMEENISISQIIENPRVLDSSISTLKSRIKELVNAGCNLSTLNITLLSWSKKRYEAKLKKLSRFA | – | – | – | – | – | GDF15; also recorded: TRPV6; also recorded: HSPA7
